Test results: publication PMC10206079, “Bioinformatics of cyanophycin metabolism genes and characterization of promiscuous isoaspartyl dipeptidases that catalyze the final step of cyanophycin degradation” (Scientific Reports, 2023)
Values belong to the compound of their own block, whether it stands above or below them.

Legend:
LmIadA = target: T1, LmIadA (Leucothrix mucor, UniProt A0AA82WPE9); assay: coupled Asp release assay (aspartate aminotransferase / malate dehydrogenase, NADH at […] nm); type: biochemical; conditions: 1 mM dipeptide, 500 nM enzyme, 100 mM HEPES pH 8.2, 20 mM KCl
T1 construct: C-terminal TEV site and 8xHis tag (cut for structural work only); expressed in E. coli BL21(DE3); homooctamer, zinc enzyme

[1] = target: Leucothrix mucor DSM2157 isoaspartyl dipeptidase (LmIadA), as crystallised (Leucothrix mucor DSM2157); assay: crystal structure; LmIadA 20 mg/ml, sitting drop, 0.56 M NaH2PO4 and 1.04 M K2HPO4, 22 °C; 1.8 Å; molecular replacement with PDB 1YBQ
[2] = target: Leucothrix mucor DSM2157 isoaspartyl dipeptidase (LmIadA), purified enzyme as examined in solution (Leucothrix mucor DSM2157); assay: not stated; purified enzyme in solution; shown in Supplementary Fig. S2; the method is not given
[3] = target: Roseivivax halodurans DSM15395 isoaspartyl aminopeptidase (RhIaaA), heterodimer of subunits a and b (Roseivivax halodurans DSM15395); assay: as above
[4] = target: Roseivivax halodurans DSM15395 isoaspartyl aminopeptidase (RhIaaA), heterodimer of subunits a and b (Roseivivax halodurans DSM15395); assay: crystal structure; RhIaaA 10 mg/ml, sitting drop, 0.1 M bis-tris propane pH 8.5, 0.2 M disodium malonate, 25% PEG3350, 4 °C; 2.7 Å; molecular replacement with PDB 2ZAL

stoichiometry N [2]: 8
Compound: Leucothrix mucor DSM2157 isoaspartyl dipeptidase (LmIadA), purified enzyme as examined in solution

stoichiometry N [3]: 2 | stoichiometry N [4]: 2
Compound: Roseivivax halodurans DSM15395 isoaspartyl aminopeptidase (RhIaaA), heterodimer of subunits a and b (complex)

Further lines, the compound ahead of its results:

Compound: N=C(N)NCCC[C@H](NC(=O)C[C@H](N)C(=O)O)C(=O)O [β-Asp-Arg]
coupled Asp release assay (aspartate aminotransferase / malate dehydrogenase, NA) (LmIadA): it displayed no apparent preference towards β-Asp-Arg/Lys (Fig. 2a)

Compound: NCCCC[C@H](NC(=O)C[C@H](N)C(=O)O)C(=O)O [β-Asp-Lys]
coupled Asp release assay (aspartate aminotransferase / malate dehydrogenase, NA) (LmIadA): it displayed no apparent preference towards β-Asp-Arg/Lys (Fig. 2a)

Compound: Leucothrix mucor DSM2157 isoaspartyl dipeptidase (LmIadA), as crystallised (enzyme)
stoichiometry N [1]: 8
